In PMC11557686:

B1: SmBiT-SEC24A [not stated] / LgBiT-SURF4 [not stated] (parent)
chain 1: MSQPGIPASGGAPASLQAQNGAALASGSPYTNGPVQNALLSSQESVSQGYNFQLPGSYPHPIPAKTLNPVSGQSNYGGSQGSGQTLNRPPVASNPVTPSLHSGPAPRMPLPASQNPATTPMPSSSFLPEANLPPPLNWQYNYPSTASQTNHCPRASSQPTVSGNTSLTTNHQYVSSGYPSLQNSFIKSGPSVPPLVNPPLPTTFQPGAPHGPPPAGGPPPVRALTPLTSSYRDVPQPLFNSAVNQEGITSNTNNGSMVVHSSYDEIEGGGLLATPQLTNKNPKMSRSVGYSYPSLPPGYQNTTPPGATGVPPSSLNYPSGPQAFTQTPLGANHLTTSMSGLSLQPEGLRVVNLLQERNMLPSTPLKPPVPNLHEDIQKLNCNPELFRCTLTSIPQTQALLNKAKLPLGLLLHPFKDLVQLPVVTSSTIVRCRSCRTYINPFVSFLDQRRWKCNLCYRVNDVPEEFLYNPLTRVYGEPHRRPEVQNATIEFMAPSEYMLRPPQPPVYLFVFDVSHNAVETGYLNSVCQSLLDNLDLLPGNTRTKIGFITFDSTIHFYGLQESLSQPQMLIVSDIEDVFIPMPENLLVNLNESKELVQDLLKTLPQMFTKTLETQSALGPALQAAFKLMSPTGGRMSVFQTQLPTLGVGALKPREEPNHRSSAKDIHMTPSTDFYKKLALDCSGQQVAVDLFLLSGQYSDLASLGCISRYSAGSVYYYPSYHHQHNPVQVQKLQKELQRYLTRKIGFEAVMRIRCTKGLSIHTFHGNFFVRSTDLLSLPNVNPDAGYAVQMSVEESLTDTQLVSFQSALLYTSSKGERRIRVHTLCLPVVSTLNDVFLGADVQAISGLLANMAVDRSMTASLSDARDALVNAVIDSLSAYRSSVLSNQQPGLMVPFSLRLFPLFVLALLKQKSFQTGTNARLDERIFAMCQVKNQPLVYLMLTTHPSLYRVDNLSDEGALNISDRTIPQPPILQLSVEKLSRDGAFLMDAGSVLMLWVGKNCTQNFLSQVLGVQNYASIPQPMTDLPELDTPESARIIAFISWLREQRPFFPILYVIRDESPMKANFLQNMIEDRTESALSYYEFLLHIQQQVNK
chain 2: MGQNDLMGTAEDFADQFLRVTKQYLPHVARLCLISTFLEDGIRMWFQWSEQRDYIDTTWNCGYLLASSFVFLNLLGQLTGCVLVLSRNFVQYACFGLFGIIALQTIAYSILWDLKFLMRNLALGGGLLLLLAESRSEGKSMFAGVPTMRESSPKQYMQLGGRVLLVLMFMTLLHFDASFFSIVQNIVGTALMILVAIGFKTKLAALTLVVWLFAINVYFNAFWTIPVYKPMHDFLKYDFFQTMSVIGGLLLVVALGPGGVSMDEKKKEW

Variants of: B1
Test: NanoBiT
Conditions: with LgBiT-SURF4; six technical replicates in each of three independent biological replicates; parent: 1; read off a plot

Row | Variant | ratio to parent
1 | chain 1 R541A | 1
2 | chain 1 K813A | 0.98

More lines, now with the values ahead:

Row | ratio to parent | Variant
3 | 0.5 | chain 1 R750A R752A
4 | 0.62 | chain 1 Y437A
